# Experimental data taken from patent publication US20170088605A1.
# B1: P46F4 (antibody, V domains shown)
# VH: QVQLQESGPGLVKPSQTLSLTCTVSGGSISNGGYYWSWIRLHPGKGLEWIGCIHYSGGTYYNPSLKSRVTVSLDTSKNQFSLNLISVTAADTAIYFCARALIAAPGISDWFDPWGQGTLVTVSS
# VL: QSVLTQPPSVSAAPGQKVTISCSGSNSNVGHNYVSWYQQLPGTAPKLLIYDNNKRPSGIPDRFSGSKSGTSATLGITGLQTGDEADYYCGTWDSSLSAGVFGGGTKVTVLG
# Key:
# [1] = biological target: BKV serotype I infectious virus (VP1) (BK virus serotype I) (UniProt P03088)
# [2] = biological target: BKV serotype II chimeric infectious virus (VP1 of isolate SB) (BK virus serotype II)
# [3] = biological target: BKV serotype III chimeric infectious virus (VP1 of isolate AS) (BK virus serotype III)
# [4] = biological target: BKV serotype IV chimeric infectious virus (VP1 of strain ITA-4) (BK virus serotype IV)
# BKV serotype I infectious virus (VP1) (BK virus serotype I), sequence (P03088 whole entry): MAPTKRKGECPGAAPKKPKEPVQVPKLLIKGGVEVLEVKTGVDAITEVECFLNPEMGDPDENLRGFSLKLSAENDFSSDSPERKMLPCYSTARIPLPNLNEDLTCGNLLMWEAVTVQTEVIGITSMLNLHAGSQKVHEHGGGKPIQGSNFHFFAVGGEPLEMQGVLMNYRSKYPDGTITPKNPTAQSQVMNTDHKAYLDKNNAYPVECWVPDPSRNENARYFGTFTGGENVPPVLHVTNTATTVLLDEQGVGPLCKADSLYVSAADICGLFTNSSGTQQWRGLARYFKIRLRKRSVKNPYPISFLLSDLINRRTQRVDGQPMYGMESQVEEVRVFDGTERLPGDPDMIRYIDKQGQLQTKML
binder,measurement,setting,value
B1,neutralization EC50,[1],0.004 µg/mL
same,neutralization EC90,[1],0.29 µg/mL
same,neutralization EC50,[2],> 100 µg/mL
same,neutralization EC90,[2],> 100 µg/mL
same,neutralization EC50,[3],> 100 µg/mL
same,neutralization EC90,[3],> 100 µg/mL
same,neutralization EC50,[4],> 100 µg/mL
same,neutralization EC90,[4],> 100 µg/mL
